The values below come from the supplement of paper PMC12764529.

± gives the half width of the 95% confidence interval.

Series [1] is described as follows: folding stability dG unfold from trypsin proteolysis; higher = more stable. The method in brief:
(§1)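 K50 was inferred by Bayesian fitting of sequencing counts obtained after protease digestion of designed mini-proteins. Unfolding free energy was derived by comparison with a sequence-predicted unfolded-state K50 and a shared folded-state K50, for each protease or both combined. The mini-proteins were under 80 residues, had no cysteine, were carried in a PA-tagged cDNA display construct, and were kept only if AlphaFold2 dimer inter-PAE exceeded 15.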

Series [2] can be described thus: folding stability dG unfold from chymotrypsin proteolysis; higher = more stable. The procedure, abridged: as §1
A short description of series [3]: folding stability dG unfold (combined trypsin and chymotrypsin); higher = more stable. The procedure, abridged: as §1

For “SAGGSAGGSAGMVITLPNGEKVEITFDKENKKITITFPDGKKVEIEIEGMSLEEILKALKSAGGSAGGSAGG [r11_729_TrROS_Hall]”, the “folding stability dG unfold” value stood at 3.84 ± 0.14 kcal/mol in series [1], 3.22 ± 0.075 kcal/mol in series [2] and 3.59 ± 0.089 kcal/mol in series [3].
Take “SAGGSAGGSAGMVLPRPDGSLVVITEHPDGTVTVTFAPPDKPITIEVPKEEPVDIRVFPLSAGGSAGGSAGG [r11_164_TrMRF]”: the “folding stability dG unfold” value turned out to be 1.39 ± 0.043 kcal/mol in series [1], 0.324 ± 0.087 kcal/mol in series [2] and 1.02 ± 0.046 kcal/mol in series [3].
For “SAGGSAGGSAGMVTETTVSRLPDGTVTTTTTEYVVHPDGSLEPVRERTTTTPVPPDVPAASAGGSAGGSAGG [r11_440_JUSTAS]”, the “folding stability dG unfold” value is 0.396 ± 0.051 kcal/mol in series [1], 1.142 ± 0.011 kcal/mol in series [2] and 0.897 ± 0.037 kcal/mol in series [3].
The matching figures for “SAGGSAGGSAGMVTRRMTPEEAEKFIADLPSDWSVEEISPLPENDIVEIKIKVEPPFKLQSAGGSAGGSAGG [r17_98_JUSTAS]”: -0.199 ± 0.09 kcal/mol, 1.76 ± 0.035 kcal/mol and 1.28 ± 0.097 kcal/mol.
The matching figures for “SAGGSAGGSAGMVVSVDRATGTFTATDPALGTTTTVPGSEEEVRAYWAERFPDRPVTITASAGGSAGGSAGG [r11_614_JUSTAS]”: -0.00347 ± 0.076 kcal/mol, -0.221 ± 0.38 kcal/mol and -0.0207 ± 0.15 kcal/mol.
The matching figures for “SAGGSAGGSAGMYVYKITYPTPSGGASEKLYPSSVPLEEVLKEAEERGAVEIEILPESELSAGGSAGGSAGG [r11_490_JUSTAS]”: 0.103 ± 0.1 kcal/mol, 0.151 ± 0.19 kcal/mol and 0.115 ± 0.23 kcal/mol.
In the case of “SAGGSAGGSAGNDVINKKYTYTITETTEEKTPTDDPVSTTITTPIEITVKAPKDEVVIPDSAGGSAGGSAGG [r11_174_JUSTAS]”, the entries for the “folding stability dG unfold” value in series [1], in series [2] and in series [3] were -0.6 ± 0.15 kcal/mol, 0.644 ± 0.25 kcal/mol and 0.31 ± 0.22 kcal/mol, respectively.
For the sequence “SAGGSAGGSAGNSVTILPIPETDKYLVVVSDNSGKFTVFDVDSSDLEDVVKALPSNYTVTSAGGSAGGSAGG [r11_569_TrMRF]”, the “folding stability dG unfold” value in series [1] is 0.881 ± 0.025 kcal/mol; in series [2] it was 1.13 ± 0.051 kcal/mol; in series [3] it was 1.04 ± 0.048 kcal/mol.
Regarding “SAGGSAGGSAGPDKPIYVMIKFEHPGRKYTHSFEFDSPEDIEEVLDRLPPGYEIKEVEIFSAGGSAGGSAGG [r17_410_TrROS]”, the “folding stability dG unfold” value in series [1] came out at 0.0221 ± 0.1 kcal/mol; in series [2], 0.946 ± 0.25 kcal/mol; in series [3], 0.482 ± 0.2 kcal/mol.
As to “SAGGSAGGSAGPEIELREDSLVIRVKAKEGEVIGVPEGLEVEGVVYDPSTGELTVVVRAPSAGGSAGGSAGG [r11_942_TrMRF]”, the “folding stability dG unfold” value was determined as 2.31 ± 0.23 kcal/mol in series [1], 1.73 ± 0.096 kcal/mol in series [2] and 1.83 ± 0.21 kcal/mol in series [3].
The matching figures for “SAGGSAGGSAGPEILIVVESEEEAKKLAEELARALREAGLPEDAKIKIKIIVLPKEELEKSAGGSAGGSAGG [r17_180_TrROS_Hall]”: 1.76 ± 0.062 kcal/mol, 2.33 ± 0.048 kcal/mol and 2.12 ± 0.066 kcal/mol.
Regarding “SAGGSAGGSAGPGVLILRRRFVRPRLIPNTGKLYYEEVELTTNLPIGPIPPNWLNNPNGVSAGGSAGGSAGG [r17_493_TrMRF]”, the “folding stability dG unfold” value is -0.0517 ± 0.15 kcal/mol in series [1], 0.0547 ± 0.11 kcal/mol in series [2] and 0.0971 ± 0.14 kcal/mol in series [3].
The matching figures for “SAGGSAGGSAGPITVPPGAVLLSVEEEGERTRVTVRLPGSGVVETYTFEPGEPVVVELPGSAGGSAGGSAGG [r11_774_JUSTAS]”: 2.27 ± 0.053 kcal/mol, 2.941 ± 0.016 kcal/mol and 2.75 ± 0.043 kcal/mol.
The matching figures for “SAGGSAGGSAGPITYRLEIRYEIERIEVRVYPGPEGPLVGEFRIEVRLEVRVEALPPEETSAGGSAGGSAGG [r11_24_TrMRF]”: 3.69 ± 0.17 kcal/mol, 4.88 ± 0.12 kcal/mol and 4.53 ± 0.16 kcal/mol.
In the case of “SAGGSAGGSAGPIVLIKIKNKNGKEIEIEMSLEELKKKLPKELKNMKVEIVEVKEVKVEKSAGGSAGGSAGG [r11_353_TrROS_Hall]”, the “folding stability dG unfold” value in series [1] is 0.351 ± 0.088 kcal/mol; in series [2] it was 0.315 ± 0.14 kcal/mol; in series [3] it was 0.56 ± 0.27 kcal/mol.
Take “SAGGSAGGSAGPIVYPYGKYLVVYNPETGALVVVELDPDGKVKKVVVFGKDGPLVELDDASAGGSAGGSAGG [r17_385_TrMRF]”: the “folding stability dG unfold” value in series [1] came to 2.76 ± 0.067 kcal/mol; in series [2], 3.369 ± 0.022 kcal/mol; in series [3] it was 3.14 ± 0.047 kcal/mol.
Regarding “SAGGSAGGSAGPKILSIEEYDPENGYITVIAELTGKPVRMKVKFIPGKKEIKIIEIEPLDSAGGSAGGSAGG [r11_1066_TrMRF]”, the entries for the “folding stability dG unfold” value in series [1], in series [2] and in series [3] were 1.81 ± 0.07 kcal/mol, 2.49 ± 0.036 kcal/mol and 2.36 ± 0.1 kcal/mol, respectively.
The matching figures for “SAGGSAGGSAGPKPPPVYRLRIVNPDGEVYEFEVPADMSPEEIAKRLGLPPGARVELEKVSAGGSAGGSAGG [r11_340_TrROS_Hall]”: 2.59 ± 0.17 kcal/mol, 3.35 ± 0.081 kcal/mol and 3.28 ± 0.28 kcal/mol.
Take “SAGGSAGGSAGPKVVLVPVKVVQKLLGVKIPENSRVLVLLEKDKVKAVLVFPVLPSPENPSAGGSAGGSAGG [r11_616_TrMRF]”: the “folding stability dG unfold” value in series [1] was 1.26 ± 0.12 kcal/mol; in series [2], 1.55 ± 0.07 kcal/mol; in series [3] it was 1.54 ± 0.17 kcal/mol.
With “SAGGSAGGSAGPLSTVTETTTTVPLPNGEVLTVTTYTYPDLGVTTVTTTYPDGTVTTTTIPVSAGGSAGGSA [r18_88_JUSTAS]”, the “folding stability dG unfold” value amounted to 2.3 ± 0.077 kcal/mol in series [1], 2.544 ± 0.011 kcal/mol in series [2] and 2.47 ± 0.041 kcal/mol in series [3].
Take “SAGGSAGGSAGPPNVKLTFTIMIMEMKMEPPPDGNPKMEMVMVPIEIEITAPPGDEITAISAGGSAGGSAGG [r11_174_TrROS]”: the “folding stability dG unfold” value in series [1] turned out to be 2.41 ± 0.2 kcal/mol; in series [2], 4 ± 0.44 kcal/mol; in series [3] it was 2.93 ± 0.39 kcal/mol.
The matching figures for “SAGGSAGGSAGPPPIEELLEQAKKNPNRPITIRNPGGYYIRITVKPDPNGKPEVEIEPVPSAGGSAGGSAGG [r11_300_TrROS]”: 0.259 ± 0.09 kcal/mol, 0.336 ± 0.25 kcal/mol and 0.263 ± 0.16 kcal/mol.
As to “SAGGSAGGSAGPPVTLDEIRDHLPPENIEDVEVNPPEGWVVIEFKPPGGEKQEITIRADDSAGGSAGGSAGG [r17_374_TrROS]”, the “folding stability dG unfold” value in series [1] was determined as 0.198 ± 0.062 kcal/mol; in series [2] it was 0.271 ± 0.021 kcal/mol; in series [3], 0.277 ± 0.13 kcal/mol.
Turning to “SAGGSAGGSAGPTLTLTLPPGKLSPEFLEALAAQGYTLGEVTVTEVPEDDTVVVTVTTAPSAGGSAGGSAGG [r11_345_JUSTAS]”, the “folding stability dG unfold” value in series [1] was determined as 1.4 ± 0.069 kcal/mol; in series [2] it was 0.623 ± 0.12 kcal/mol; in series [3], 1.1 ± 0.069 kcal/mol.
Consider “SAGGSAGGSAGPVVISIPETNTLVVLAPLPDDRVLADVFQFDPTTPEPTVFTVPAENISFSAGGSAGGSAGG [r11_285_TrMRF]”, for which the “folding stability dG unfold” value amounted to 0.76 ± 0.024 kcal/mol in series [1], 0.335 ± 0.13 kcal/mol in series [2] and 0.565 ± 0.099 kcal/mol in series [3].
The matching figures for “SAGGSAGGSAGPYVVTIELPSGERIEVAVPAERLEEHVEELKPLVEPARITVRPVAPDALSAGGSAGGSAGG [r11_103_TrMRF]”: 0.143 ± 0.02 kcal/mol, 0.477 ± 0.018 kcal/mol and 0.376 ± 0.053 kcal/mol.
